# Measurements published in US20250340659A1 (PETMEDIX, published 2025).
# T1: canine OX40L, full length membrane form, expressed on HEK293 cells (canine)
# T1 chain: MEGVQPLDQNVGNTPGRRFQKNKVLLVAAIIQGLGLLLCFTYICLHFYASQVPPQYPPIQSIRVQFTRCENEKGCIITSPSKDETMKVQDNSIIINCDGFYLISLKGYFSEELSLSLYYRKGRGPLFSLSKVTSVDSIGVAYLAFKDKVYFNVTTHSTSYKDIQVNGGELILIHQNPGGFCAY
# Tests used:
# [1] = molecular target: T1, canine OX40L, full length membrane …; assay: cell-based or functional assay
# [2] = molecular target: T1, canine OX40L, full length membrane …; assay: flow cytometry
# Experimental: (§1) CHO supernatants diluted in FACS buffer (PBS containing 3% FBS) at 1, 5 or 10 μg/ml were used to screen for their binding capacity to canine OX40L using a cell-based assay. In brief, HEK293 or MEF cells (or any other commonly used cell lines) expressing canine OX40L at the cell surface are incubated with 100 μll of FACS buffer containing the candidate antibody for 30′ on ice. Cells are washed with 150 μl FACS buffer followed by centrifugation at 300 g for 3 min. The cell pellet is resuspended in FACS buffer containing a 1:1000 dilution of a fluorescently labelled secondary antibody recognising the canine Fc region of the test antibody for 30 min in the dark, followed by washing with 150 μl FACS buffer. Cells are resuspended in FACS buffer and flow cytometry performed using either a […] cytometer, followed by data analysis using FlowJo (FIG. 6 and Table 4).
# [3] = molecular target: T1, canine OX40L, full length membrane …; assay: flow cytometry, OX40L HEK minus WT HEK
# Experimental: as §1
Binder,% Signal Inhibition Average [1],% Signal Inhibition Rep1 [1],% Signal Inhibition Rep2 [1],% Signal Inhibition Rep3 [1],GEO mean OX40L expressing HEK [2],GEO mean difference [3]
"PMX089 (antibody, V domains shown) VH: EVQLVESGGDLVKPGGSLRLSCVASGFTFNNFHMSWVRQAPGKGLQWVAFINSDGGNRNYADVVKGRVTISRDYAKNTLYLQINSLRAEDTAVYYCAGGSIWTHFDYWGQGTLVTVSS VL: SYVLTQLPSMSVTLRQTARITCEGDIIASKRIYWYQQKLGQVPVLLIYADSSRPSGIPERFSGASSGNTATLTISGALAEDEADYYCQVWDNNANSVFGGGTHLTVL",47.4%,43.3%,49.7%,49.1%,,
"PMX093 (antibody, V domains shown) VH: EVQLVESGGDLVKPGGSLRLSCVASGFTFSSYHMSWVRQAPGKGLQWVAFINSGGGGTNYADAVKGRFTISRDYAKNTLYLQMNSLRAEDTAVYYCVGGSIWTHFDYWGQGTLVTVSS VL: SYVLTQLPSMSVTLRQTARITCEGDIIASKRVYWYQQKLGQVPVLLIYGDSSRPSGIPERFSGANSGNTATLTISGALAEDEADYYCQVWDSGTNSVFGGGTHLTVL",5.46%,0%,-0.585%,17%,,
"PMX092 (antibody, V domains shown) VH: EVQLVESGGDLVKPGGSLRLSCVASGFTFNNLHMSWVRQAPGKGLQWVAFINSDGRNRNYADAVKGRVTISRDYAKNTLYLQINSLRAEDTAVYYCTGGSIWTHFDYWGQGTLVTVSS VL: SYVLTQLPSMSVTLRQTARITCEGDIIASKRVYWYQQKLGQVPVLFIYADNSRPSGIPERFSGASSGNTATLTISGALAEDEADYYCQVWDSNANSVFGGGTHLTVL",34.7%,33.3%,39.2%,31.6%,,
"PMX084 (antibody, V domains shown, also called PMX84) VH: EVQLVESGGDLVKPEGSLRLSCVVSGFTFSNYDMSWVRQAPGKGLQWVAFISNDGRITGYTDAVEGRFTISRDNAKNTLYLQMNSLRTEDTAVYYCAKETSRWGFDYWGQGTLVTVSS VL: SYVLTQLPSVSVTLRQTARITCGGDSIGSKNVYWHQQKLGQAPVLIIYDDSSRPSGIPERFSGANSGNTATLTISGALAEDEADYYCQVWDSSTSVFGGGTHLTVL",60.7%,47.2%,66.9%,68%,622000,610000
"PMX062 (antibody, also called PMX62) heavy: EVQLVESGGDLVKPEGSLRLSCVVSGFTFSSYDMSWVRQAPGKGLQWVAYISFDGRSTSYTDVVKGRFTISRDNAKTTLYLQMNTLRIEDTAVYYCAKLSSSGWSMDYWGHGTSLFVSSASTTAPSVFPLAPSCGSTSGSTVALACLVSGYFPEPVTVSWNSGSLTSGVHTFPSVLQSSGLYSLSSMVTVPSSRWPSETFTCNVAHPASKTKVDKPVPKRENGRVPRPPDCPKCPAPESLGGPSVFIFPPKPKDTLLIARTPEVTCVVVDLGREDPEVQISWFVDGKQMQTAKTQPREEQFNGTYRVVSVLPIGHQDWLKGKQFTCKVNHIGLPSPIERTISKARGQAHQPSVYVLPPSREELSKNTVSLTCLIKDFFPPDIDVEWQSNGQQEPESKYRTTPPQLDEDGSYFLYSKLSVDKSRWQRGDTFICAVMHEALHNHYTQKSLSHSPGK VL: SYVLTQLPSKNVTLKQPAHITCGGDNIGSKSVHWYQQKLGQAPVLIIYYDSSRPTGIPERFSGANSGNTATLTISGALAEDEADYYCQVWDSSASVFGGGTHLTVL",15%,4.15%,22.1%,18.7%,2.81e+06,2.78e+06
"PMX094 (antibody, V domains shown) VH: DIHLVESGGDLVRPGGSLRLSCVASGFTFSNLHMNWVRQAPGKGLQWVAFINSGGSGTTYADVVRGRFTISRDYAKNTLYLQMNSLRADDTAVYYCASGSIWTHFDYWGQGTLVTVSS VL: SFVLTQLPSVSVTLRQTARITCGGDSIGSKSVYWYQQKLGQAPVLIIYRDSNRPTGIPERISGASSGNTATLTISGALAEDEADYYCQVWDSSNKAMFGGGTHLTVL",45.4%,38.6%,55%,42.7%,,
"PMX095 (antibody, V domains shown) VH: AVQLVESGGDLVRPGGSLRLSCVASGFTFSSYHMNWVRQAPGKGLQWVAFINSGGSSTTYADVVRGRFTISRDYAKNTLFLQMNSLRAEDTAVYYCAIGSIWTHFDYWGQGTLVTVSS VL: SFVLTQLPSVSVTLRQTARITCGGDIIGSKNVYWYQQRLGQAPVLILYRDTNRPTGIPERFSGASSGNTATLTISGALAEDEADYYCQVWDNSNKAMFGGGTHLTVL",50.3%,40.9%,52.6%,57.3%,,
"PMX082 (antibody, V domains shown, also called PMX82) VH: EVQLVESGGDLVKPGGSLRLSCVASGFTFSSHHMTWVRQAPGKGLQWVAYIVSGGTNTNYADAVKGRFTISRDNAKNTLYLQMNSLRAEDTAVYYCASDLVLAVGAPFYWGQGTLVTVSS VL: SYELTQPPSVNVTLRETAHITCGGDSIGRKYVQWIQQNPGQAPVVIIYKDINRPTGIPERFSGANSGNTATLTISGALAEDEADYYCQVGDSGTKAVFGEGTQLTVL",72.3%,72.8%,71.9%,72.1%,544000,531000
"PMX083 (antibody, V domains shown, also called PMX83) VH: EVQLVESGGDLVKPGGSLRLSCVASGFTFRTYHMSWVRQAPGKGLQWVAYITRDGISTTYTDAVKGRFTISRDNAKNTLFLQMNSLRADDTAVYYCASDLVLVLGAPFYWGQGTLVTVSS VL: SYELTQPPSVNVTLGETAHITCGGDSIGRKYVQWIQQNPGQAPVVIIYKDSNRPTGIPERFSGANSGNTATLTISGALAEDEADYYCQVGDSGTKAVFGEGTQLTVL",71.1%,66%,65.8%,81.6%,701000,690000

# The next lines start with the values.
% Signal Inhibition Average [1],% Signal Inhibition Rep1 [1],% Signal Inhibition Rep2 [1],% Signal Inhibition Rep3 [1],GEO mean OX40L expressing HEK [2],GEO mean difference [3],Binder
32.4%,49.1%,28.1%,19.9%,,,"PMX100 (antibody, V domains shown) VH: EVQLVESGGDLVRPGGSLRLSCVASGFTFSSYHMSWVRQAPGKGLQWVAFINSGGSSTTYADVVRGRFTISRDYAKNTLYLQMNSLRAEDTAVYYCASGSIWTHFDYWGQGTLVTVSS VL: SFVLTQLPSVSVTLRQTARITCGGDSIGSKSVYWYQQRLGQAPVLIIYRDSNRPTGIPERFSGASSGNTATLTISGALAEDEADYYCQVWDNSNKAMFGGGTHLTVL"
24.8%,25.1%,32.7%,16.4%,,,"PMX099 (antibody, V domains shown) VH: EVQLVESGGDLVRPGGSLRLSCVASGFTFSSYHMNWVRQAPGKGLQWVAFINSGGSSTTYADVVRGRFTISRDYAKNTLYLQMNSLRAEDTAVYYCASGSIWTHFDYWGQGTLVTVSS VL: SFVLTQLPSVSVTLRQTARITCGGDSIGTKSVYWYQQKLGQAPVLIIYRDSNRPTGIPERFSGASSGNTATLTISGALAEDEADYYCQVWDSSNKAMFGGGTHLTVL"
52.4%,62.6%,50.3%,44.4%,,,"PMX101 (antibody, V domains shown) VH: EVQLVESGGDLVRPGGSLRLSCVASGFTFSNYHMSWVRQAPGKGLQWVAFINSGGSSTSYADAVRGRFTISRDYAKNTLYLQMNSLRAEDTAVYYCASGSIWTHFDYWGQGTLVTVSS VL: SFVLTQLPSVSVTLRQTARITCGGDIIGSKSVYWFQQKLGQAPILIIYRDDNRPTGIPERFSGASSGNTATLIISGALAEDEAHYYCQVWDSSSKAMFGGGTHLTVL"
47.6%,57.3%,26.3%,59.1%,,,"PMX103 (antibody, V domains shown) VH: EVQLVESGGDLVRPGGSLRLSCVASGFTFSNLHMNWVRQAPGKGLQWVAFINSGGSGTTYADVVRGRFTISRDYAKNTLNLQMTSLRAEDTAVYYCATGSIWTHFDYWGQGTLVTVSS VL: SFVLTQLPSVSVTLRQTARITCGGDSIGSKSVYWYQQKLGQAPVLIIYRDSNRPTGIPERISGASSGNTATLTISGALAEDEADYYCQVWDSSNKAMFGGGTHLTVL"
50.1%,36.8%,59.1%,54.4%,,,"PMX096 (antibody, V domains shown) VH: EVQLVESGGDLVKPGGSLRLSCVASGFTFNTYHMNWVRQAPGKGLHWVAFINSGGSDTSYADTVQGRFTISRDYAKNTLYLQMNSLRAEDTAVYYCASGYIWTHFDYWGQGTLVTVSS VL: SYVLTQLPSVSVTLRQTAHITCGGDIIGSKSVYWYQQKLGQAPVMIIYRDNNRPTGIPERFSGASSGNTATLTISGSLAEDEADYYCQVWDSRTQALFGGGTHLTVL"
